Consider 35 molecules from US20110118447A1.

B1: C5A (XPA23) VH T58V (antibody, V domains shown)
VH: EVQLLESGGGLVQPGGSLRLSCAASGFTFSKYFMFWVRQAPGKGLEWVSVISPSGGMVRYADSVKGRFTISRDNSKNTLYLQMNSLRAEDTAVYYCARVGYGGNSDYWGQGTLVTVSS
VL: DIQMTQSPSSVSASVGDRLTIICRASQDINRWLAWYQQTPGNAPKLLIHSATSLQSGVPSRFSGSGSGTDFTLTINSLQPEDFATYYCQQADSFPLTFGGGTKVEIK
B2: C5A (XPA23) VH R59F (antibody, V domains shown)
VH: B1 VH with V58T, R59F
VL: B1 VL
B3: C5A (XPA23) VH G103A (antibody, V domains shown)
VH: B1 VH with V58T, G103A
VL: B1 VL
B4: C5A (XPA23) VH Y101W (antibody, V domains shown)
VH: B1 VH with V58T, Y101W
VL: B1 VL
B5: C5A (XPA23) VH G103V (antibody, V domains shown)
VH: B1 VH with V58T, G103V
VL: B1 VL
B6: C5A (XPA23) VH T58P (antibody, V domains shown)
VH: B1 VH with V58P
VL: B1 VL
B7: C5A (XPA23) VH R59P (antibody, V domains shown)
VH: B1 VH with V58T, R59P
VL: B1 VL
B8: C5A (XPA23) VH R59L (antibody, V domains shown)
VH: B1 VH with V58T, R59L
VL: B1 VL
B9: C5A (XPA23) VH T58F (antibody, V domains shown)
VH: B1 VH with V58F
VL: B1 VL
B10: C5A (XPA23) VH N104A (antibody, V domains shown)
VH: B1 VH with V58T, N104A
VL: B1 VL
B11: C5A (XPA23) VH V99A (antibody, V domains shown)
VH: B1 VH with V58T, V99A
VL: B1 VL
B12: C5A (XPA23) VH S105V (antibody, V domains shown)
VH: B1 VH with V58T, S105V
VL: B1 VL
B13: C5A (XPA23) VH N104V (antibody, V domains shown)
VH: B1 VH with V58T, N104V
VL: B1 VL
B14: C5A (XPA23) VH R59G (antibody, V domains shown)
VH: B1 VH with V58T, R59G
VL: B1 VL
B15: C5A (XPA23) VH N104L (antibody, V domains shown)
VH: B1 VH with V58T, N104L
VL: B1 VL
B16: C5A (XPA23) VH Y101L (antibody, V domains shown)
VH: B1 VH with V58T, Y101L
VL: B1 VL
B17: C5A (XPA23) VH N104G (antibody, V domains shown)
VH: B1 VH with V58T, N104G
VL: B1 VL
B18: C5A (XPA23) VH Y101F (antibody, V domains shown)
VH: B1 VH with V58T, Y101F
VL: B1 VL
B19: C5A (XPA23) VH R59W (antibody, V domains shown)
VH: B1 VH with V58T, R59W
VL: B1 VL
B20: C5A (XPA23) VH Y101A (antibody, V domains shown)
VH: B1 VH with V58T, Y101A
VL: B1 VL
B21: C5A (XPA23) VH V99F (antibody, V domains shown)
VH: B1 VH with V58T, V99F
VL: B1 VL
B22: C5A (XPA23) VH S105G (antibody, V domains shown)
VH: B1 VH with V58T, S105G
VL: B1 VL
B23: C5A (XPA23) VH D106G (antibody, V domains shown)
VH: B1 VH with V58T, D106G
VL: B1 VL
B24: C5A (XPA23) VH T58L (antibody, V domains shown)
VH: B1 VH with V58L
VL: B1 VL
B25: C5A (XPA23) VH T58I (antibody, V domains shown)
VH: B1 VH with V58I
VL: B1 VL
B26: C5A (XPA23) VH T58W (antibody, V domains shown)
VH: B1 VH with V58W
VL: B1 VL
B27: C5A (XPA23) VH Y101P (antibody, V domains shown)
VH: B1 VH with V58T, Y101P
VL: B1 VL
B28: C5A (XPA23) VH G100W (antibody, V domains shown)
VH: B1 VH with V58T, G100W
VL: B1 VL
B29: C5A (XPA23) VH Y107G (antibody, V domains shown)
VH: B1 VH with V58T, Y107G
VL: B1 VL
B30: C5A (XPA23) VH S105A (antibody, V domains shown)
VH: B1 VH with V58T, S105A
VL: B1 VL
B31: C5A (XPA23) VH Y101I (antibody, V domains shown)
VH: B1 VH with V58T, Y101I
VL: B1 VL
B32: C5A (XPA23) VH S105P (antibody, V domains shown)
VH: B1 VH with V58T, S105P
VL: B1 VL
B33: C5A (XPA23) VH Y101V (antibody, V domains shown)
VH: B1 VH with V58T, Y101V
VL: B1 VL
B34: C5A (XPA23) VH S105F (antibody, V domains shown)
VH: B1 VH with V58T, S105F
VL: B1 VL
B35: C5A (XPA23) VH S105I (antibody, V domains shown)
VH: B1 VH with V58T, S105I
VL: B1 VL

Where a chain is given by its changes, count along the chain named. Names and notes keep the numbering of the source.

The target in one test is binding partner of C5A (XPA23). Description: Biacore. On the technique in general: Surface plasmon resonance follows binding to a sensor surface in real time, without labels.
Regarding B1, the fold difference in affinity vs original stood at 0.99 fold.

As for B2, the fold affinity vs original worked out at 0.92 fold.

As to B3, the fold difference in affinity vs original is 0.03 fold.

Take B4: the fold affinity vs original worked out at 0.81 fold.

As for B5, the fold difference in affinity vs original amounted to 2.56 fold.

As to B6, the fold difference in affinity vs original was 1.81 fold.

Turning to B7, the fold difference in affinity vs original turned out to be 0.07 fold.

With B8, the fold difference in affinity vs original is 0.08 fold.

For the molecule B9, the fold affinity vs original is 1.04 fold.

In the case of B10, the fold difference in affinity vs original was determined as 1.61 fold.

On to B11, for which the fold difference in affinity vs original was found to be 0.03 fold.

For the molecule B12, the fold difference in affinity vs original amounted to 0.08 fold.

Consider B13, for which the fold difference in affinity vs original amounted to 1.27 fold.

Take B14: the fold difference in affinity vs original stood at 1.04 fold.

As to B15, the fold difference in affinity vs original worked out at 1.19 fold.

As for B16, the fold difference in affinity vs original was 1.91 fold.

Regarding B17, the fold difference in affinity vs original is 1.21 fold.

Regarding B18, the fold affinity vs original amounted to 0.85 fold.

As for B19, the fold affinity vs original is 0.09 fold.

B20: the fold difference in affinity vs original turned out to be 0.04 fold.

B21: the fold affinity vs original amounted to 0.03 fold.

Turning to B22, the fold difference in affinity vs original is 0.12 fold.

Consider B23, for which the fold difference in affinity vs original is 0.03 fold.

Consider B24, for which the fold difference in affinity vs original was 0.95 fold.

On to B25, for which the fold difference in affinity vs original was 0.95 fold.

Turning to B26, the fold affinity vs original was determined as 0.93 fold.

As to B27, the fold difference in affinity vs original amounted to 0.04 fold.

B28: the fold affinity vs original was 0.05 fold.

Take B29: the fold difference in affinity vs original worked out at 0.1 fold.

As for B30, the fold difference in affinity vs original turned out to be 0.84 fold.

Take B31: the fold difference in affinity vs original was 0.83 fold.

B32: the fold difference in affinity vs original is 1.41 fold.

Consider B33, for which the fold difference in affinity vs original was 0.09 fold.

For B34, the fold affinity vs original amounted to 1.25 fold.

On to B35, for which the fold difference in affinity vs original was 0.07 fold.

A further test concerns the target binding partner (antigen) of C5A (XPA23). Briefly: Biacore, K-off, fold vs original.
As to B1, the fold difference in affinity vs original came out at 0.99 fold.

As to B2, the fold difference in affinity vs original came to 0.92 fold.

Regarding B3, the fold difference in affinity vs original worked out at 0.03 fold.

As to B4, the fold difference in affinity vs original was found to be 0.81 fold.

In the case of B5, the fold difference in affinity vs original was determined as 2.56 fold.

As to B6, the fold difference in affinity vs original came out at 1.81 fold.

B7: the fold difference in affinity vs original is 0.07 fold.

With B8, the fold difference in affinity vs original came out at 0.08 fold.

Turning to B9, the fold difference in affinity vs original was 1.04 fold.

On to B10, for which the fold difference in affinity vs original turned out to be 1.61 fold.

For the molecule B11, the fold difference in affinity vs original stood at 0.03 fold.

For the molecule B12, the fold difference in affinity vs original was 0.08 fold.

Turning to B13, the fold difference in affinity vs original stood at 1.27 fold.

For the molecule B14, the fold difference in affinity vs original is 1.04 fold.

Regarding B15, the fold difference in affinity vs original is 1.19 fold.

Turning to B16, the fold difference in affinity vs original amounted to 1.91 fold.

B17: the fold difference in affinity vs original was 1.21 fold.

B18: the fold difference in affinity vs original was found to be 0.85 fold.

Take B19: the fold difference in affinity vs original was found to be 0.09 fold.

Turning to B20, the fold difference in affinity vs original came out at 0.04 fold.

Regarding B21, the fold difference in affinity vs original was found to be 0.03 fold.

As for B22, the fold difference in affinity vs original was found to be 0.12 fold.

B23: the fold difference in affinity vs original is 0.03 fold.

Take B24: the fold difference in affinity vs original was 0.95 fold.

Take B25: the fold difference in affinity vs original is 0.95 fold.

For B26, the fold difference in affinity vs original turned out to be 0.93 fold.

In the case of B27, the fold difference in affinity vs original came to 0.04 fold.

B28: the fold difference in affinity vs original worked out at 0.05 fold.

As for B29, the fold difference in affinity vs original came to 0.1 fold.

Take B30: the fold difference in affinity vs original came to 0.84 fold.

B31: the fold difference in affinity vs original worked out at 0.83 fold.

As to B32, the fold difference in affinity vs original amounted to 1.41 fold.

As for B33, the fold difference in affinity vs original is 0.09 fold.

For the molecule B34, the fold difference in affinity vs original turned out to be 1.25 fold.

As for B35, the fold difference in affinity vs original was found to be 0.07 fold.
